# “And” between values parts separate entries of the source, which are not always exact repeats. Equal entries are not always repeated.
# T1: SorCS3 expressed on cells (UniProt Q9UPU3 134-1222, limits assumed)
# T1 construct: whole, on cells
# T1 sequence (looked up): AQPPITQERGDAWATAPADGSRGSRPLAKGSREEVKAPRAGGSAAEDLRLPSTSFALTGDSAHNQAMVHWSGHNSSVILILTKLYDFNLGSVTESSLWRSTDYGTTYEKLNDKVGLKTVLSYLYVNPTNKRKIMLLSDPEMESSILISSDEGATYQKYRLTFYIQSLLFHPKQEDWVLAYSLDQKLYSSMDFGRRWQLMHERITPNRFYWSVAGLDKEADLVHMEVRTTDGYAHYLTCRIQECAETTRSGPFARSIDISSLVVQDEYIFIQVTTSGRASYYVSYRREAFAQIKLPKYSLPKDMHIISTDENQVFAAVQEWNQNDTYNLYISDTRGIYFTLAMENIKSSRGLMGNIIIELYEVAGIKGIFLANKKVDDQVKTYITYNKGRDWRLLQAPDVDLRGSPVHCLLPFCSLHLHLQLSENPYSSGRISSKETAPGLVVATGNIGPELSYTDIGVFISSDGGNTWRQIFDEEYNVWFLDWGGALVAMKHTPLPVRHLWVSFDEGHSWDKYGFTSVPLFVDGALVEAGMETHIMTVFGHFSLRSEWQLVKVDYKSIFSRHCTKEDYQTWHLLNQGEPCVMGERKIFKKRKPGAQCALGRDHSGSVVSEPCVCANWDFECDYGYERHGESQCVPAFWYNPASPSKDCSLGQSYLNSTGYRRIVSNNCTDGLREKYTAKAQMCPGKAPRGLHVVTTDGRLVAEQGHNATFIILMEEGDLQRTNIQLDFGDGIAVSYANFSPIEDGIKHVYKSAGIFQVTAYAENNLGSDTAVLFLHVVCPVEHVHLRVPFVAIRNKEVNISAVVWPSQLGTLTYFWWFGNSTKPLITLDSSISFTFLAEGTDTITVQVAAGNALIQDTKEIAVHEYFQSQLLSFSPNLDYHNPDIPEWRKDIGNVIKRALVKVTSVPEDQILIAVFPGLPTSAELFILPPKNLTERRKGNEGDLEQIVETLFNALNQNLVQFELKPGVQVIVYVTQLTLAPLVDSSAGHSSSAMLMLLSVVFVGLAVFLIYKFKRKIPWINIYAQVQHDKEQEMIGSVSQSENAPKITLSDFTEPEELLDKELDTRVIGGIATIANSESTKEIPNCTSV
# T2: SorCS1 expressed on cells (UniProt Q8WY21 34-1168, limits assumed)
# T2 construct: whole, on cells
# T2 sequence (looked up): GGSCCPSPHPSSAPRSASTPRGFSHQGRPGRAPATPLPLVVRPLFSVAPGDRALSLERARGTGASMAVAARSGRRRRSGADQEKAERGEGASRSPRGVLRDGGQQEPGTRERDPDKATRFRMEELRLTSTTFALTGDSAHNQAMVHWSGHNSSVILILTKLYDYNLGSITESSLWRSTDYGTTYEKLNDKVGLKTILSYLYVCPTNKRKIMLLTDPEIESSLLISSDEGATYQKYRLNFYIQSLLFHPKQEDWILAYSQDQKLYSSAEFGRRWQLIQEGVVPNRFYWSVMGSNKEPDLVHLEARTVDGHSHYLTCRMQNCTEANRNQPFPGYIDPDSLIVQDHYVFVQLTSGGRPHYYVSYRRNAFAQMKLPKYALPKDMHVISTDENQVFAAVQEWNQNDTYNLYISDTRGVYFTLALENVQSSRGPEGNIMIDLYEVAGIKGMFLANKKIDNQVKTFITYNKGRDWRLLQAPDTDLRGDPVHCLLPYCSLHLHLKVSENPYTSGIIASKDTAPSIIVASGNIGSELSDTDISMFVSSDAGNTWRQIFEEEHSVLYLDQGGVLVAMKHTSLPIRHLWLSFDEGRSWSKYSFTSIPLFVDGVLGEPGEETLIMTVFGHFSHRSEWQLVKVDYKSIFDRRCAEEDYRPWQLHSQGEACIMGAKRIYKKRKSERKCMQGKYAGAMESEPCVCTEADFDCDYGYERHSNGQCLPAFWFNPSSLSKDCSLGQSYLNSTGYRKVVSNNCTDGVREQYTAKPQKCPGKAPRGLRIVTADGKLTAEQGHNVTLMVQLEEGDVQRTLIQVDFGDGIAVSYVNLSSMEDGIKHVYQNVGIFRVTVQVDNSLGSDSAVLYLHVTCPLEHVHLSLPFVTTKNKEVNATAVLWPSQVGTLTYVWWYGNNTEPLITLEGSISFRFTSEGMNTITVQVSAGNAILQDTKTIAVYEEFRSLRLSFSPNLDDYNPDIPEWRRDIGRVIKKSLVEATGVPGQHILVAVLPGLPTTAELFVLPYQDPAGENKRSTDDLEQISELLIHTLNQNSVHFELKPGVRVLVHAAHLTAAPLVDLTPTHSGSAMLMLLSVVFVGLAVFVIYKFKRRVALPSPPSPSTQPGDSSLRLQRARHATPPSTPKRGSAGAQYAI
# T3: TNFR2 expressed on cells (human, UniProt P20333 23-461)
# T3 construct: whole, on cells
# T3 sequence (looked up): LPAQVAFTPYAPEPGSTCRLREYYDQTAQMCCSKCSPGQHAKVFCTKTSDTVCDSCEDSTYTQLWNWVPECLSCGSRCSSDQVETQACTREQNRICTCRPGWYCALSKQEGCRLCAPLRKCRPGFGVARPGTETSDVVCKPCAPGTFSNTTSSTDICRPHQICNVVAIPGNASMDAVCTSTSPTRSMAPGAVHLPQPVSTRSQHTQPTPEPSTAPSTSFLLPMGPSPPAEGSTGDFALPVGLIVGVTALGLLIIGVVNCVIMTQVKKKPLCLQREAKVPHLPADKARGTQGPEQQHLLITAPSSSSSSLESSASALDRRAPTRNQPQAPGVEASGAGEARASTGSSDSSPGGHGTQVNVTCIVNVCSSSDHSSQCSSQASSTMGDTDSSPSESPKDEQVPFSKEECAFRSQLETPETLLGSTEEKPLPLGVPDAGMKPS
# T4: FAS expressed on cells (human, UniProt P25445 26-335)
# T4 construct: whole, on cells
# T4 sequence (looked up): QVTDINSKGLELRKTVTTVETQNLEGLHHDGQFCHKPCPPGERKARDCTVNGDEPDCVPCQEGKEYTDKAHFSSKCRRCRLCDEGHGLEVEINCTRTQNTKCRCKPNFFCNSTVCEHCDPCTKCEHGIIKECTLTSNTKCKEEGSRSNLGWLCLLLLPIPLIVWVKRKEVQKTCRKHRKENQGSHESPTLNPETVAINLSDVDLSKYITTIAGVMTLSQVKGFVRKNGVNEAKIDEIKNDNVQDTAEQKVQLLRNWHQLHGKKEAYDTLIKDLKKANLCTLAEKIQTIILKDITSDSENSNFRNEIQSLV
# T5: human p75 neurotrophin receptor, full length, expressed on HEK 293 cells (Homo sapiens, UniProt P08138 29-427)
# T5 construct: Full-length human p75 with a cytosolic fluorescent tag (GFP); also called p75NTR; NGFR
# T5 sequence: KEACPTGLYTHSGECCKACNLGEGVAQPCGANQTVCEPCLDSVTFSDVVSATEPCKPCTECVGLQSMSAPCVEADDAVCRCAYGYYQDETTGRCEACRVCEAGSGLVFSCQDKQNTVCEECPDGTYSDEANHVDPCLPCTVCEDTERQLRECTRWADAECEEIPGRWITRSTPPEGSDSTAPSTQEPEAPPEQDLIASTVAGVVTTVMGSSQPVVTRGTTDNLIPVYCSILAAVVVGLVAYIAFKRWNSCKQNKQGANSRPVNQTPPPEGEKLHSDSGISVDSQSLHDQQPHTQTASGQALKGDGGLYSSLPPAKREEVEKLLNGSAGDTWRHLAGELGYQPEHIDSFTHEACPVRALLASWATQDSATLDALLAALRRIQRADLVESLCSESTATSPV
# Experiments:
# [1] = target: T6, SorCS2 expressed on cells (UniProt Q96PQ0 51-1159, limits assumed); experiment: cell-cell binding
# T6 construct: whole, on cells
# [2] = target: T1, SorCS3 expressed on cells; experiment: cell-cell binding
# [3] = target: T7, Sortilin expressed on cells (UniProt Q99523 78-831, limits assumed); experiment: cell-cell binding
# T7 construct: whole, on cells
# [4] = target: T2, SorCS1 expressed on cells; experiment: cell-cell binding
# TNFR2 expressed on cells = target: T3, TNFR2 expressed on cells; experiment: cell-cell screen, flow cytometry
# Experimental: (§1) As illustrated, cells were transfected with expression cassettes expressing labeled receptors or labeled ligands, receptor-expressing cells were mixed with ligand-expressing cells and cell-to-cell binding was monitored by detecting the labels associated with the receptor and the ligand. […] Binding was detected using an anti-mIgG2A ab and flow cytometry. The binding curves were fit and the Bmax, EC50, and hill coefficient were calculated using the equation Y=Bmax*Xh/(Kdh+Xh).
# FAS expressed on cells = target: T4, FAS expressed on cells; experiment: cell-cell screen, flow cytometry
# Experimental: as §1
# [5] = target: T5, human p75 neurotrophin receptor, full …; experiment: Fc fusion titrated on transfected cells, flow cytometry
# Experimental: (§2) Three days post transfection cells were counted and diluted to 1×10⁶ cells/mL in 1×PBS 0.2% BSA, pH 7.4. Premixed solutions containing a final concentration of 1 μM Fc-fusion protein and 1.5 μM Alexa 647 goat anti-mouse secondary antibody (ThermoFisher, A-21235) were incubated on ice for 30 min. Subsequently, increasing amounts of the premixed solution was added to wells of a 96-well plate and the volume adjusted to 50 μL with 1×PBS and 100 μL of diluted cells (100,000 cells total) added to the wells. Binding was performed at room temperature for 1 hour, the cells washed 2× with 1×PBS 0.2% BSA by centrifugation and subsequently analyzed by Flow Cytometry on a SONY Spectral Analyzer (SA 3800). Gated live cells were sub-gated for GFP, and GFP-positive cells sub-gated for Alexa-647.
# [6] = target: T8, human CD28 expressed on HEK 293 cells (human, UniProt P10747 19-220); experiment: Fc fusion titrated on CD28-expressing cells, flow cytometry
# T8 construct: whole, on cells; also called CD28-GFP
# Experimental: as §2
# [7] = target: T9, human CTLA-4 expressed on HEK 293 cells (human, UniProt P16410 36-223); experiment: Fc fusion titrated on CTLA-4-expressing cells, flow cytometry
# T9 construct: whole, on cells; also called CTLA-4-GFP
# Experimental: as §2
# T9 sequence (P16410 36-223): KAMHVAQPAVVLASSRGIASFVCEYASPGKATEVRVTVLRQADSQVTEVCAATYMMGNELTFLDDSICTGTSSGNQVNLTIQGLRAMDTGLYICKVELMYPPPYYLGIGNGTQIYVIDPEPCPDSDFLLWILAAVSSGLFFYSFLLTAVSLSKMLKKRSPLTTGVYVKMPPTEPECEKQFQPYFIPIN
# T6 sequence (Q96PQ0 51-1159 limits assumed): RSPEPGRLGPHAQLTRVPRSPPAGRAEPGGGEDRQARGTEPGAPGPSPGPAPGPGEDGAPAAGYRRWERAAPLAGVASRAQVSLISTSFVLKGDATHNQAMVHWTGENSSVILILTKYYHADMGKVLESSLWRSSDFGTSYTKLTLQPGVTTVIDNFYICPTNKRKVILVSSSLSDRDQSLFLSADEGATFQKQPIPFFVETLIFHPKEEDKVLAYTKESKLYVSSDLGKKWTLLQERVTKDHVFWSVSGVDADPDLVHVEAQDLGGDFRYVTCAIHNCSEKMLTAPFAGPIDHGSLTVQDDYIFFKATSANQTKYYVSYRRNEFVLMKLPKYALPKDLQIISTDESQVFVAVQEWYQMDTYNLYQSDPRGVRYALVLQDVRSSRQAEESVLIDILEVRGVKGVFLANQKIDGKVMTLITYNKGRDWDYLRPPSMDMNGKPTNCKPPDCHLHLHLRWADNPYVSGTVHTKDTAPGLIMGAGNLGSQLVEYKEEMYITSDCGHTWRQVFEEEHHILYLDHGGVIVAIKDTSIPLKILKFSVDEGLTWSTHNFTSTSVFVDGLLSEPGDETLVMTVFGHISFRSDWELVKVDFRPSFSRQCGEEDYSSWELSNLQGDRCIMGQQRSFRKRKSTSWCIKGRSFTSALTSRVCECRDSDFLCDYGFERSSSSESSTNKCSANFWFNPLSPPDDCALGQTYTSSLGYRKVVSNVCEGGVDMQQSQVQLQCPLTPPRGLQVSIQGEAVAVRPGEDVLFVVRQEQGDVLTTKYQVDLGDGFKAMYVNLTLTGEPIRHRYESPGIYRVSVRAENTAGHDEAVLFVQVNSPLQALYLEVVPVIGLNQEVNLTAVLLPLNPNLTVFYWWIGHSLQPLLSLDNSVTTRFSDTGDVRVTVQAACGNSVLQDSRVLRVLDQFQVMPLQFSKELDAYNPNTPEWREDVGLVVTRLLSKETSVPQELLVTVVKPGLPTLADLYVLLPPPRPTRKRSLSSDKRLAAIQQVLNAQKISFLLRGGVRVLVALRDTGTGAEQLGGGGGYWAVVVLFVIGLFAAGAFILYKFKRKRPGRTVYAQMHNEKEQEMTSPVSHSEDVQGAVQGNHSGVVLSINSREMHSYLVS
binding result [1],binding result [2],binding result [3],binding result [4],binding result (TNFR2 expressed on cells),binding result (FAS expressed on cells),binding result [5],EC50 [6],EC50 [7],Binder
no binding,no binding,no binding,no binding,no binding,no binding,,,,"human B7-1 (CD80), full length, expressed on HEK 293 cells (ligand, also called hB7-1; B7-1-mCherry) VIHVTYEVKEVATLSCGHNVSVEELAQTRIYWQKEKKMVLTMMSGDMNIWPEYKNRTIFDITNNLSIVILALRPSDEGTYECVVLKYEKDAFKREHLAEVTLSVKADFPTPSISDFEIPTSNIRRIICSTSGGFPEPHLSWLENGEELNAINTTVSQDPETELYAVSSKLDFNMTTNHSFMCLIKYGHLRVNQTFNWNTTKQEHFPDNLLPSWAITLISVNGIFVICCLTYCFAPRCRERRRNERL"
,,,,,,no binding,~9 nM and ~10 nM,~9 nM and ~10 nM,"B7-1N82E-Fc (Fc fusion, also called recombinant mutant B7-1 N82E; B7-1 N82E Fc fusion protein; not shown: C-terminal deca-His-tagged Fc domain (mIgG2a-His10 or hIgG1-His10)) VIHVTYEVKEVATLSCGHNVSVEELAQTRIYWQKEKKMVLTMMSGDMEIWPEYKNRTIFDITNNLSIVILALRPSDEGTYECVVLKYEKDAFKREHLAEVTLSVKADFPTPSISDFEIPTSNIRRIICSTSGGFPEPHLSWLENGEELNAINTTVSQDPETELYAVSSKLDFNMTTNHSFMCLIKYGHLRVNQTFNWNT"

# Source: patent publication US20240201167A1 (ALBERT EINSTEIN COLLEGE OF MEDICINE, published 2024)
